Test results reported in publication doi:10.1101/607101 (bioRxiv, 2019).

Target: the molecule itself
Experiment: crystal structure

B1: Kitasatospora setae enoyl-CoA carboxylase/reductase (ECR), wild type (enzyme)
chain: MQEILDAILSGDAASADYAALALPESYRAVTLHKGEERMFDGLASRDKDPRKSLHLDDVPLPELGPGEALVAVMASSVNYNTVWSSIFEPVSTFGFLERYGRLSPLTARHDLPYHVLGSDLAGVVLRTGAGVNAWKPGDEVVAHCLSVELESPDGHNDTMMDPEQRIWGFETNFGGLAQLALVKTNQLLPKPKHLTWEEAASPGLVNSTAYRQLVSRNGAGLKQGDNVLIWGASGGLGSYATQYALAGGATPICVVSSPRKADICRAMGAEAIIDRSAEGYRFWKDEHHQDPREWKRLGGKIREFTGGEDVDIVFEHPGRETFGASVYVTRKGGTIVTCASTSGYMHQYDNRYLWMSLKRIVGSHFANYREAFEANRLVAKGKIHPTLSKVYALEETGQAALDVHHNKHQGKVGVLCLAPREGLGVTDPELRSKHLTKINAFRNV
- stoichiometry N: 4
